The results in this text go back to paper PMC12241074.

The assay concerns the target mouse IgM (mouse).

As to “recombinant mouse polymeric immunoglobulin receptor (from UniProt O70570 19-771)”, the GSDMD level (Western blot) in primary mouse AT2 treated for 16 h with iKP + r pIgR (0.5 ug/mL) + IgM (0.5 ug/mL), compared with non-treated cells was 326% and the GSDMD-NT level (Western blot) in primary mouse AT2 treated for 16 h with iKP + r pIgR (0.5 ug/mL) + IgM (0.5 ug/mL), compared with non-treated cells is 13 fold.
